{"source": "paper PMC9877181", "tested_on": "CCCC(=O)Oc1ccc([N+](=O)[O-])cc1", "test": "purified protein", "conditions": "50 mM Tris-HCl pH 8, 10 μM enzyme, no α-CD", "data": [{"substance": "EstG (Caulobacter vibrioides NA1000)", "values": [{"measurement": "Km", "value": 11.2, "unit": "mM"}]}]}
